Target: T1, HY5-S36A-GFP (Arabidopsis, UniProt O24646 1-168, S36A)
T1 sequence (looked up): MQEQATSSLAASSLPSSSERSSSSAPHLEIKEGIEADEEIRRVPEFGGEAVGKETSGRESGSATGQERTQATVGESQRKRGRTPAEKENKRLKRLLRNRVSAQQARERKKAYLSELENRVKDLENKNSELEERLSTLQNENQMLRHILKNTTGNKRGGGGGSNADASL
Experiment: co-IP

B1: COP1 (CONSTITUTIVE PHOTOMORPHOGENIC1), endogenous (natural protein, Arabidopsis (endogenous in seedlings), UniProt P43254 1-675, looked up)
chain: MEEISTDPVVPAVKPDPRTSSVGEGANRHENDDGGSGGSEIGAPDLDKDLLCPICMQIIKDAFLTACGHSFCYMCIITHLRNKSDCPCCSQHLTNNQLYPNFLLDKLLKKTSARHVSKTASPLDQFREALQRGCDVSIKEVDNLLTLLAERKRKMEQEEAERNMQILLDFLHCLRKQKVDELNEVQTDLQYIKEDINAVERHRIDLYRARDRYSVKLRMLGDDPSTRNAWPHEKNQIGFNSNSLSIRGGNFVGNYQNKKVEGKAQGSSHGLPKKDALSGSDSQSLNQSTVSMARKKRIHAQFNDLQECYLQKRRQLADQPNSKQENDKSVVRREGYSNGLADFQSVLTTFTRYSRLRVIAEIRHGDIFHSANIVSSIEFDRDDELFATAGVSRCIKVFDFSSVVNEPADMQCPIVEMSTRSKLSCLSWNKHEKNHIASSDYEGIVTVWDVTTRQSLMEYEEHEKRAWSVDFSRTEPSMLVSGSDDCKVKVWCTRQEASVINIDMKANICCVKYNPGSSNYIAVGSADHHIHYYDLRNISQPLHVFSGHKKAVSYVKFLSNNELASASTDSTLRLWDVKDNLPVRTFRGHTNEKNFVGLTVNSEYLACGSETNEVYVYHKEITRPVTSHRFGSPDMDDAEEEAGSYFISAVCWKSDSPTMLTANSQGTIKVLVLAA
  fold co-immunoprecipitated COP1 against the HY5-S36D-GFP line: 4 times

— publication doi:10.1101/2020.09.10.291773 (bioRxiv, 2020)
